Laboratory results: the supplement of paper PMC9112550, “Optimization of the antimicrobial peptide Bac7 by deep mutational scanning” (BMC Biology, 2022)

The sequences below were run on Escherichia coli TOP10 (assay: shrunken log2 fold change of peptide-encoding DNA abundance (4.5 h post-induction vs induction); higher = less antimicrobial activity (less host growth inhibition)). Conditions: time post-induction: 4.5 h; library: site-saturation at positions 5, 18, 19, 20.
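Further: peptides expressed intracellularly from a pBAD plasmid library in pooled LB shake-flask culture, induced with 0.3% L-arabinose, DNA abundance read by NGS, three biological replicates, DESeq2 with apeglm shrinkage.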

Sequence	shrunken log2 fold change
RRIRCRPPRLPRPRPRPGSEPRP	0.286
RRIRCRPPRLPRPRPRPGWFPRP	0.0546
RRIRCRPPRLPRPRPRPGWIPRP	0.198
RRIRCRPPRLPRPRPRPGWNPRP	-0.243
RRIRCRPPRLPRPRPRPGYHPRP	-0.997
RRIRCRPPRLPRPRPRPGYRPRP	-0.682
RRIRCRPPRLPRPRPRPHAAPRP	0.31
RRIRCRPPRLPRPRPRPHAMPRP	-0.145
RRIRCRPPRLPRPRPRPHAPPRP	0.0482
RRIRCRPPRLPRPRPRPHDYPRP	-0.482
RRIRCRPPRLPRPRPRPHEAPRP	-0.65
RRIRCRPPRLPRPRPRPHEHPRP	1.94
RRIRCRPPRLPRPRPRPHGWPRP	0.267
RRIRCRPPRLPRPRPRPHGYPRP	-0.108
RRIRCRPPRLPRPRPRPHKFPRP	-0.742
RRIRCRPPRLPRPRPRPHKMPRP	-0.593
RRIRCRPPRLPRPRPRPHMAPRP	-0.374
RRIRCRPPRLPRPRPRPHMGPRP	-0.29
RRIRCRPPRLPRPRPRPHNIPRP	-0.898
RRIRCRPPRLPRPRPRPHNMPRP	-0.82
RRIRCRPPRLPRPRPRPHPEPRP	-0.168
RRIRCRPPRLPRPRPRPHSGPRP	0.00506
RRIRCRPPRLPRPRPRPHVFPRP	0.161
RRIRCRPPRLPRPRPRPHVMPRP	-0.743
RRIRCRPPRLPRPRPRPHYGPRP	-0.189

Sequence	shrunken log2 fold change
RRIRCRPPRLPRPRPRPIAVPRP	-0.0152
RRIRCRPPRLPRPRPRPIAYPRP	-0.113
RRIRCRPPRLPRPRPRPIDDPRP	-0.0196
RRIRCRPPRLPRPRPRPIGCPRP	-0.00449
RRIRCRPPRLPRPRPRPIGGPRP	-0.17
RRIRCRPPRLPRPRPRPIHCPRP	-0.0192
RRIRCRPPRLPRPRPRPIHMPRP	0.109
RRIRCRPPRLPRPRPRPIHVPRP	-0.377
RRIRCRPPRLPRPRPRPIKEPRP	-0.0741
RRIRCRPPRLPRPRPRPIMNPRP	-0.911
RRIRCRPPRLPRPRPRPINRPRP	0.0376
RRIRCRPPRLPRPRPRPIPDPRP	0.106
RRIRCRPPRLPRPRPRPIQAPRP	0.0936
RRIRCRPPRLPRPRPRPIQCPRP	-0.14
RRIRCRPPRLPRPRPRPIQFPRP	-0.131
RRIRCRPPRLPRPRPRPIRCPRP	-0.00208
RRIRCRPPRLPRPRPRPITDPRP	-0.442
RRIRCRPPRLPRPRPRPITKPRP	-0.297
RRIRCRPPRLPRPRPRPITVPRP	-0.222
RRIRCRPPRLPRPRPRPIVEPRP	-0.151
RRIRCRPPRLPRPRPRPIWMPRP	-0.677
RRIRCRPPRLPRPRPRPKAHPRP	0.205
RRIRCRPPRLPRPRPRPKAKPRP	0.0298
RRIRCRPPRLPRPRPRPKCGPRP	0.0778
RRIRCRPPRLPRPRPRPKEDPRP	0.166

Sequence	shrunken log2 fold change
RRIRCRPPRLPRPRPRPKELPRP	-0.000896
RRIRCRPPRLPRPRPRPKEPPRP	0.302
RRIRCRPPRLPRPRPRPKGHPRP	-0.17
RRIRCRPPRLPRPRPRPKGNPRP	-0.31
RRIRCRPPRLPRPRPRPKGTPRP	0.0259
RRIRCRPPRLPRPRPRPKGVPRP	0.595
RRIRCRPPRLPRPRPRPKHPPRP	-0.0559
RRIRCRPPRLPRPRPRPKHQPRP	-0.0465
RRIRCRPPRLPRPRPRPKIVPRP	-0.29
RRIRCRPPRLPRPRPRPKKIPRP	0.00547
RRIRCRPPRLPRPRPRPKKRPRP	0.156
RRIRCRPPRLPRPRPRPKMAPRP	0.0796
RRIRCRPPRLPRPRPRPKMEPRP	-0.204
RRIRCRPPRLPRPRPRPKNPPRP	1.17
RRIRCRPPRLPRPRPRPKNQPRP	-0.112
RRIRCRPPRLPRPRPRPKNRPRP	-0.118
RRIRCRPPRLPRPRPRPKQNPRP	0.136
RRIRCRPPRLPRPRPRPKRIPRP	-0.143
RRIRCRPPRLPRPRPRPKRLPRP	0.0169
RRIRCRPPRLPRPRPRPKSIPRP	-0.349
RRIRCRPPRLPRPRPRPKVCPRP	0.0885
RRIRCRPPRLPRPRPRPKVGPRP	-0.0582
RRIRCRPPRLPRPRPRPKVQPRP	0.0235
RRIRCRPPRLPRPRPRPKVVPRP	-0.0915
RRIRCRPPRLPRPRPRPKVWPRP	0.261

Sequence	shrunken log2 fold change
RRIRCRPPRLPRPRPRPKVYPRP	-0.167
RRIRCRPPRLPRPRPRPKWMPRP	0.361
RRIRCRPPRLPRPRPRPKYIPRP	-0.828
RRIRCRPPRLPRPRPRPKYKPRP	-0.834
RRIRCRPPRLPRPRPRPLAWPRP	-0.0538
RRIRCRPPRLPRPRPRPLEEPRP	0.408
RRIRCRPPRLPRPRPRPLFSPRP	2.05
RRIRCRPPRLPRPRPRPLGPPRP	0.106
RRIRCRPPRLPRPRPRPLHGPRP	-0.089
RRIRCRPPRLPRPRPRPLIIPRP	-1.07
RRIRCRPPRLPRPRPRPLIQPRP	-0.457
RRIRCRPPRLPRPRPRPLKPPRP	-0.225
RRIRCRPPRLPRPRPRPLKRPRP	-0.052
RRIRCRPPRLPRPRPRPLKSPRP	-0.154
RRIRCRPPRLPRPRPRPLKYPRP	-0.566
RRIRCRPPRLPRPRPRPLLMPRP	-0.195
RRIRCRPPRLPRPRPRPLLWPRP	0.671
RRIRCRPPRLPRPRPRPLMAPRP	0.18
RRIRCRPPRLPRPRPRPLMIPRP	-0.431
RRIRCRPPRLPRPRPRPLPMPRP	0.074
RRIRCRPPRLPRPRPRPLRKPRP	0.734
RRIRCRPPRLPRPRPRPLTKPRP	0.291
RRIRCRPPRLPRPRPRPLVLPRP	-0.378
RRIRCRPPRLPRPRPRPLWDPRP	-0.386
RRIRCRPPRLPRPRPRPLYLPRP	-0.493

Sequence	shrunken log2 fold change
RRIRCRPPRLPRPRPRPLYTPRP	-0.765
RRIRCRPPRLPRPRPRPMADPRP	-0.0181
RRIRCRPPRLPRPRPRPMAHPRP	-0.00655
RRIRCRPPRLPRPRPRPMANPRP	0.0226
RRIRCRPPRLPRPRPRPMAPPRP	0.219
RRIRCRPPRLPRPRPRPMDDPRP	-0.194
RRIRCRPPRLPRPRPRPMDEPRP	0.348
RRIRCRPPRLPRPRPRPMDIPRP	0.00412
RRIRCRPPRLPRPRPRPMEYPRP	-0.17
RRIRCRPPRLPRPRPRPMGAPRP	0.144
RRIRCRPPRLPRPRPRPMGDPRP	-0.0113
RRIRCRPPRLPRPRPRPMGIPRP	0.00755
RRIRCRPPRLPRPRPRPMGWPRP	0.324
RRIRCRPPRLPRPRPRPMHHPRP	-0.796
RRIRCRPPRLPRPRPRPMHPPRP	-0.00769
RRIRCRPPRLPRPRPRPMHSPRP	-0.0254
RRIRCRPPRLPRPRPRPMHTPRP	-0.106
RRIRCRPPRLPRPRPRPMIEPRP	-0.117
RRIRCRPPRLPRPRPRPMIGPRP	-0.0953
RRIRCRPPRLPRPRPRPMKMPRP	-0.0497
RRIRCRPPRLPRPRPRPMLTPRP	-0.0319
RRIRCRPPRLPRPRPRPMNLPRP	-0.538
RRIRCRPPRLPRPRPRPMNMPRP	-0.445
RRIRCRPPRLPRPRPRPMNVPRP	-0.00117
RRIRCRPPRLPRPRPRPMPMPRP	-0.174

Sequence	shrunken log2 fold change
RRIRCRPPRLPRPRPRPMSQPRP	-0.0148
RRIRCRPPRLPRPRPRPMVWPRP	0.412
RRIRCRPPRLPRPRPRPMWGPRP	-0.214
RRIRCRPPRLPRPRPRPMWRPRP	0.276
RRIRCRPPRLPRPRPRPNAEPRP	0.118
RRIRCRPPRLPRPRPRPNAIPRP	0.0905
RRIRCRPPRLPRPRPRPNCFPRP	-0.0988
RRIRCRPPRLPRPRPRPNCSPRP	0.0117
RRIRCRPPRLPRPRPRPNDQPRP	0.0359
RRIRCRPPRLPRPRPRPNFIPRP	-0.616
RRIRCRPPRLPRPRPRPNFVPRP	-0.123
RRIRCRPPRLPRPRPRPNHKPRP	-0.862
RRIRCRPPRLPRPRPRPNMFPRP	-0.529
RRIRCRPPRLPRPRPRPNMHPRP	-0.615
RRIRCRPPRLPRPRPRPNMLPRP	-0.398
RRIRCRPPRLPRPRPRPNNCPRP	-0.636
RRIRCRPPRLPRPRPRPNNTPRP	-0.737
RRIRCRPPRLPRPRPRPNQLPRP	-0.345
RRIRCRPPRLPRPRPRPNRRPRP	-0.0599
RRIRCRPPRLPRPRPRPNSEPRP	-0.398
RRIRCRPPRLPRPRPRPNSRPRP	-0.175
RRIRCRPPRLPRPRPRPNTIPRP	-0.553
RRIRCRPPRLPRPRPRPNWGPRP	-0.0514
RRIRCRPPRLPRPRPRPNWIPRP	-0.419
RRIRCRPPRLPRPRPRPNWTPRP	-0.0217
